Paper PMC6168280 (The Journal of Cell Biology, 2018)

B1: S. cerevisiae Vps1 G436D (natural protein)
chain: MDEHLISTINKLQDALAPLGGGSQSPIDLPQITVVGSQSSGKSSVLENIVGRDFLPRGTGIVTRRPLVLQLINRRPKKSEHAKVNQTANELIDLNINDDDKKKDESGKHQNEGQSEDNKEEWGEFLHLPGKKFYNFDEIRKEIVKETDKVTGANSGISSVPINLRIYSPHVLTLTLVDLPGLTKVPVGDQPPDIERQIKDMLLKYISKPNAIILSVNAANTDLANSDGLKLAREVDPEGTRTIGVLTKVDLMDQGTDVIDILAGRVIPLRYGYIPVINRGQKDIEHKKTIREALENERKFFENHPSYSSKAHYCGTPYLAKKLNSILLHHIRQTLPEIKAKIEATLKKYQNELINLGPETMDSASSVVLSMITDFSNEYAGILDGEAKELSSQELSGGARISYVFHETFKNGVDSLDPFDQIKDSDIRTIMYNSSDSAPSLFVGTEAFEVLVKQQIRRFEEPSLRLVTLVFDELVRMLKQIISQPKYSRYPALREAISNQFIQFLKDATIPTNEFVVDIIKAEQTYINTAHPDLLKGSQAMVMVEEKLHPRQVAVDPKTGKPLPTQPSSSKAPVMEEKSGFFGGFFSTKNKKKLAALESPPPVLKATGQMTERETMETEVIKLLISSYFSIVKRTIADIIPKALMLKLIVKSKTDIQKVLLEKLYGKQDIEELTKENDITIQRRKECKKMVEILRNASQIVSSV

What was measured:
[1] = molecular target: C. thermophilum Vps1 GG (minimal GTPase-BSE fusion) (C. thermophilum); assay: SEC-MALS
SEC-MALS = molecular target: the molecule itself; assay: SEC-MALS

Molecule | stoichiometry N [1] | stoichiometry N (SEC-MALS)
C. thermophilum Vps1 GG (minimal GTPase-BSE fusion) (domain or fragment) | 2 | –
B1 | – | 2
